Data: PMC4144708 (Biochemistry, 2014)

How the values were obtained:
[1] = substrate: [H][C@@]12COP(=O)(O)O[C@@]1([H])[C@@H](O)[C@H](n1cnc3c(=O)[nH]c(N)nc31)O2; experiment: [3H]cGMP hydrolysis, scintillation counting, Michaelis-Menten fit; type: biochemical, Saccharomyces cerevisiae; conditions: 50 mM Tris-HCl pH 7.5, room temperature, no added ion, labelled compound
[2] = biological target: the molecule itself; experiment: SEC

B1: yeast phosphodiesterase-1 (yPDE1), full length (residues 1-369) (enzyme, Saccharomyces cerevisiae, UniProt P22434 1-369, looked up)
chain: MVVFEITILGANGGPTEYGTQCFILKPARTEDPELIAVDGGAGMYQLREMLVQGRNENEGDDELVPSFYEHDREPIEFFIDSKLNIQKGLSKSLLQSLKRQGEHFESANTMKKTYEVFQGITDYYITHPHLDHISGLVVNSPSIYEQENSKKKTIWGLPHTIDVLQKHVFNDLIWPDLTAERSRKLKLKCLNPKEVQKCTIFPWDVIPFKVHHGIGVKTGAPVYSTFYIFRDRKSKDCIIVCGDVEQDRRESEESLLEEFWSYVAENIPLVHLKGILVECSCPLSSKPEQLYGHLSPIYLINELSNLNTLYNSSKGLSGLNVIVTHVKSTPAKRDPRLTILEELRFLAEERNLGDLRISIALEGHTLFL
Question: For B1, which Km [1] is on record?
Answer: 104.7 ± 10.2 µM

Question: And the kcat [1]?
Answer: 11.8 ± 1 s⁻¹

Question: What about the kcat/Km [1] of the same protein?
Answer: 113000 M⁻¹ s⁻¹

Question: What about the “stoichiometry N” value [2] of the same protein?
Answer: 2
